Test system: Escherichia coli TOP10
Experiment: shrunken log2 fold change of peptide-encoding DNA abundance (4.5 h post-induction vs induction); higher = less antimicrobial activity (less host growth inhibition)
Conditions: time post-induction: 4.5 h; library: site-saturation at positions 5, 18, 19, 20
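Also: peptides expressed intracellularly from a pBAD plasmid library in pooled LB shake-flask culture, induced with 0.3% L-arabinose, DNA abundance read by NGS, three biological replicates, DESeq2 with apeglm shrinkage.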

Sequence	shrunken log2 fold change
RRIRYRPPRLPRPRPRPKVNPRP	-0.599
RRIRLRPPRLPRPRPRPLGVPRP	0.0325
RRIRARPPRLPRPRPRPANCPRP	0.186
RRIRNRPPRLPRPRPRPFWRPRP	-0.0018
RRIRMRPPRLPRPRPRPDQEPRP	0.0392
RRIRARPPRLPRPRPRPNMCPRP	-0.339
RRIRSRPPRLPRPRPRPYWKPRP	-0.144
RRIRKRPPRLPRPRPRPNNHPRP	-0.469
RRIRIRPPRLPRPRPRPSLWPRP	0.211
RRIRCRPPRLPRPRPRPTSNPRP	-0.1
RRIRMRPPRLPRPRPRPEGTPRP	0.0716
RRIRMRPPRLPRPRPRPKWVPRP	0.466
RRIRQRPPRLPRPRPRPMCNPRP	-0.389
RRIRCRPPRLPRPRPRPCFYPRP	-0.675
RRIRDRPPRLPRPRPRPDDMPRP	0.155
RRIRHRPPRLPRPRPRPYNYPRP	-0.00747
RRIRFRPPRLPRPRPRPEHHPRP	-0.306
RRIRARPPRLPRPRPRPDWPPRP	0.98
RRIRLRPPRLPRPRPRPYHVPRP	-1.29
RRIRDRPPRLPRPRPRPREGPRP	1.01
RRIRSRPPRLPRPRPRPPKQPRP	-0.215
RRIRLRPPRLPRPRPRPGPVPRP	0.753
RRIRDRPPRLPRPRPRPNDCPRP	-0.0197
RRIRCRPPRLPRPRPRPRWWPRP	0.718
RRIRSRPPRLPRPRPRPINHPRP	-0.662

Sequence	shrunken log2 fold change
RRIRWRPPRLPRPRPRPDSCPRP	-0.0201
RRIRNRPPRLPRPRPRPDMQPRP	-0.0295
RRIRQRPPRLPRPRPRPDHKPRP	-0.0609
RRIRTRPPRLPRPRPRPLSNPRP	0.012
RRIRDRPPRLPRPRPRPPMFPRP	0.216
RRIRQRPPRLPRPRPRPCRGPRP	0.104
RRIRCRPPRLPRPRPRPTFCPRP	-0.0442
RRIRSRPPRLPRPRPRPRNIPRP	-0.28
RRIRKRPPRLPRPRPRPVAPPRP	0.528
RRIRHRPPRLPRPRPRPCTAPRP	0.0655
RRIRYRPPRLPRPRPRPSHRPRP	-0.479
RRIRVRPPRLPRPRPRPILPPRP	-0.331
RRIRVRPPRLPRPRPRPCCFPRP	-0.00712
RRIRCRPPRLPRPRPRPCECPRP	-0.0911
RRIRGRPPRLPRPRPRPWKGPRP	0.22
RRIRPRPPRLPRPRPRPDWVPRP	0.0636
RRIRVRPPRLPRPRPRPTTQPRP	0.0531
RRIRRRPPRLPRPRPRPMRFPRP	1.1
RRIRFRPPRLPRPRPRPSMWPRP	-0.579
RRIRPRPPRLPRPRPRPTPTPRP	0.483
RRIRVRPPRLPRPRPRPVTQPRP	0.12
RRIRARPPRLPRPRPRPWPNPRP	0.111
RRIRYRPPRLPRPRPRPIMFPRP	-1.35
RRIRIRPPRLPRPRPRPLHNPRP	-0.563
RRIRYRPPRLPRPRPRPRYCPRP	-0.495

Sequence	shrunken log2 fold change
RRIRVRPPRLPRPRPRPVTEPRP	-0.164
RRIRHRPPRLPRPRPRPQCFPRP	-0.0477
RRIRPRPPRLPRPRPRPSSYPRP	-0.197
RRIRCRPPRLPRPRPRPAFHPRP	-0.389
RRIRFRPPRLPRPRPRPQMRPRP	0.495
RRIRNRPPRLPRPRPRPRAHPRP	-0.0951
RRIRDRPPRLPRPRPRPDAHPRP	-0.036
RRIRLRPPRLPRPRPRPPAIPRP	2.54
RRIRRRPPRLPRPRPRPAPPPRP	0.778
RRIRQRPPRLPRPRPRPITYPRP	-0.402
RRIRDRPPRLPRPRPRPSPYPRP	-1.07
RRIRRRPPRLPRPRPRPNLKPRP	-0.0818
RRIRKRPPRLPRPRPRPQHAPRP	0.232
RRIRCRPPRLPRPRPRPDQMPRP	0.101
RRIRLRPPRLPRPRPRPWCMPRP	-0.408
RRIRNRPPRLPRPRPRPWPGPRP	0.281
RRIRRRPPRLPRPRPRPDLSPRP	-0.0391
RRIRVRPPRLPRPRPRPESIPRP	-0.149
RRIRYRPPRLPRPRPRPTSTPRP	-0.203
RRIRNRPPRLPRPRPRPEFEPRP	0.114
RRIRTRPPRLPRPRPRPPPWPRP	0.614
RRIRTRPPRLPRPRPRPVSRPRP	0.464
RRIRARPPRLPRPRPRPCPLPRP	-0.132
RRIRFRPPRLPRPRPRPATHPRP	0.167
RRIRMRPPRLPRPRPRPVGFPRP	0.405

Sequence	shrunken log2 fold change
RRIRKRPPRLPRPRPRPNDQPRP	-0.101
RRIRTRPPRLPRPRPRPHPHPRP	0.0583
RRIRFRPPRLPRPRPRPWAMPRP	-0.0609
RRIRCRPPRLPRPRPRPSQQPRP	-0.0757
RRIRTRPPRLPRPRPRPGNTPRP	-0.0393
RRIRDRPPRLPRPRPRPRADPRP	0.65
RRIRIRPPRLPRPRPRPVLLPRP	-0.03
RRIRRRPPRLPRPRPRPIPLPRP	0.194
RRIRTRPPRLPRPRPRPNKIPRP	-0.799
RRIRMRPPRLPRPRPRPMRQPRP	-0.0415
RRIRERPPRLPRPRPRPWWQPRP	-0.0206
RRIRWRPPRLPRPRPRPFSWPRP	0.0632
RRIRVRPPRLPRPRPRPFLCPRP	-0.0159
RRIRWRPPRLPRPRPRPAVRPRP	-0.0873
RRIRDRPPRLPRPRPRPAELPRP	0.0334
RRIRARPPRLPRPRPRPLMAPRP	0.554
RRIRGRPPRLPRPRPRPTITPRP	0.526
RRIRARPPRLPRPRPRPVSDPRP	0.576
RRIRYRPPRLPRPRPRPLYCPRP	-0.975
RRIRDRPPRLPRPRPRPLFGPRP	0.341
RRIRQRPPRLPRPRPRPKYQPRP	-0.369
RRIRVRPPRLPRPRPRPKKLPRP	-0.0765
RRIRMRPPRLPRPRPRPCWSPRP	0.349
RRIRVRPPRLPRPRPRPLFKPRP	-0.262
RRIRDRPPRLPRPRPRPWNGPRP	-0.176

Sequence	shrunken log2 fold change
RRIRIRPPRLPRPRPRPEKEPRP	-0.00237
RRIRSRPPRLPRPRPRPYFSPRP	-0.611
RRIRNRPPRLPRPRPRPYTLPRP	-0.288
RRIRCRPPRLPRPRPRPEAIPRP	0.117
RRIRNRPPRLPRPRPRPASDPRP	0.278
RRIRARPPRLPRPRPRPQSSPRP	-0.0298
RRIRDRPPRLPRPRPRPGMHPRP	0.0286
RRIRDRPPRLPRPRPRPWRWPRP	0.196
RRIRGRPPRLPRPRPRPCLTPRP	0.496
RRIRRRPPRLPRPRPRPPKQPRP	0.459
RRIRVRPPRLPRPRPRPCELPRP	-0.286
RRIRTRPPRLPRPRPRPERDPRP	0.0175
RRIRHRPPRLPRPRPRPFAPPRP	-0.0777
RRIRGRPPRLPRPRPRPVNTPRP	0.0713
RRIRSRPPRLPRPRPRPGQDPRP	-0.329
RRIRHRPPRLPRPRPRPCSEPRP	0.0248
RRIRCRPPRLPRPRPRPANFPRP	-0.0131
RRIRPRPPRLPRPRPRPPHNPRP	0.242
RRIRTRPPRLPRPRPRPKVTPRP	-0.026
RRIRFRPPRLPRPRPRPTVEPRP	0.0624
RRIRDRPPRLPRPRPRPNWFPRP	-0.0729
RRIRYRPPRLPRPRPRPRYHPRP	-0.922
RRIRDRPPRLPRPRPRPFEIPRP	-0.0367
RRIRARPPRLPRPRPRPGWWPRP	0.235
RRIRYRPPRLPRPRPRPRVMPRP	-0.155

Sequence	shrunken log2 fold change
RRIRFRPPRLPRPRPRPCCNPRP	-0.0548
RRIRNRPPRLPRPRPRPCHIPRP	-0.366
RRIRDRPPRLPRPRPRPPYIPRP	-0.346
RRIRTRPPRLPRPRPRPRDCPRP	0.057
RRIRLRPPRLPRPRPRPYLMPRP	-0.69
RRIRARPPRLPRPRPRPKEMPRP	0.324
RRIRWRPPRLPRPRPRPKTHPRP	0.293
RRIRGRPPRLPRPRPRPSHFPRP	-0.621
RRIRTRPPRLPRPRPRPPWHPRP	0.118
RRIRDRPPRLPRPRPRPAWSPRP	0.168
RRIRERPPRLPRPRPRPYNKPRP	-1.11
RRIRHRPPRLPRPRPRPKTCPRP	-0.0999
RRIRYRPPRLPRPRPRPFFRPRP	-0.019
RRIRFRPPRLPRPRPRPCDWPRP	-0.0151
RRIRMRPPRLPRPRPRPCKDPRP	-0.0302
RRIRIRPPRLPRPRPRPENAPRP	-0.0916
RRIRQRPPRLPRPRPRPKTAPRP	0.0173
RRIRLRPPRLPRPRPRPREGPRP	0.966
RRIRSRPPRLPRPRPRPGQSPRP	0.153
RRIRRRPPRLPRPRPRPLLDPRP	0.449
RRIRDRPPRLPRPRPRPFVQPRP	-0.194
RRIRWRPPRLPRPRPRPRIIPRP	0.136
RRIRIRPPRLPRPRPRPTFDPRP	-0.188
RRIRTRPPRLPRPRPRPFGKPRP	-0.00963
RRIRERPPRLPRPRPRPTYYPRP	-0.614

Reference: the supplement of paper PMC9112550, “Optimization of the antimicrobial peptide Bac7 by deep mutational scanning” (BMC Biology, 2022)
